Test results from US20220251236A1 (Boehringer Ingelheim, published 2022).

T1: EGF1+2
T1 construct: also called Hu DLL3 EGF1+2 on HEK293 cells
T1 membrane-anchored DLL3 subdomain construct: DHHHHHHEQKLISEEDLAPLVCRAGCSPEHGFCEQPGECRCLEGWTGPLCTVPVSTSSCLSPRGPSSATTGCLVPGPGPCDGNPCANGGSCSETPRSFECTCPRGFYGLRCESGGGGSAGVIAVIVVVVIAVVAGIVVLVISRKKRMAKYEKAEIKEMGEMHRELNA

T2: EGF2+3
T2 construct: also called Hu DLL3 EGF2+3 on HEK293 cells
T2 membrane-anchored DLL3 subdomain construct: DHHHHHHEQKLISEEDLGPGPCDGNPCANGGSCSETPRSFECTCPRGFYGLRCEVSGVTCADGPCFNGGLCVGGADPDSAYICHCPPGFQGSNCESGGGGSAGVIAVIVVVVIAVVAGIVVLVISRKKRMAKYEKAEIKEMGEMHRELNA

T3: EGF3+4
T3 construct: also called Hu DLL3 EGF3+4 on HEK293 cells
T3 membrane-anchored DLL3 subdomain construct: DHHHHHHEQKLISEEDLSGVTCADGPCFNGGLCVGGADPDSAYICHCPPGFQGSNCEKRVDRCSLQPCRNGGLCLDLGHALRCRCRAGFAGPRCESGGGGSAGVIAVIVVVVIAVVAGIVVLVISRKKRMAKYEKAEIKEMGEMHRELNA

T4: EGF4+5
T4 construct: also called Hu DLL3 EGF4+5 on HEK293 cells
T4 membrane-anchored DLL3 subdomain construct: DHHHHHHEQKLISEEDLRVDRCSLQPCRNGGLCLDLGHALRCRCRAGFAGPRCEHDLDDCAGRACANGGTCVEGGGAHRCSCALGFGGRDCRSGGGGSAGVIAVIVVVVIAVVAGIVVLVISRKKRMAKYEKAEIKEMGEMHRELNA

T5: EGF5+6
T5 construct: also called Hu DLL3 EGF5+6 on HEK293 cells
T5 membrane-anchored DLL3 subdomain construct: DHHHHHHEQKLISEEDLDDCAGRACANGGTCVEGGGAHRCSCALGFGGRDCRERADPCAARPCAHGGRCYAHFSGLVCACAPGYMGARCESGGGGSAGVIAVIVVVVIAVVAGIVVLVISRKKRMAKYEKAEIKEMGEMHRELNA

T6: EGF6+MEMBRANE PROXIMAL PEPTIDE
T6 construct: also called Hu DLL3 EGF6+membrane proximal peptide on HEK293 cells
T6 membrane-anchored DLL3 subdomain construct: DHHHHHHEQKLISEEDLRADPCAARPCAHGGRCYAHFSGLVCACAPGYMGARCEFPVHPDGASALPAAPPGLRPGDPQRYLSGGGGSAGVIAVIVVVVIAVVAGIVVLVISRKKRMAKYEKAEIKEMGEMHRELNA


Experiments:
Human CD3 E+G HuFc-6xHis = biological target: T7, Human CD3 E+G HuFc-6xHis (human); assay: SPR (ProteOn XPR36), HuCD3E_HuCD3G-Fc amine-coupled, bispecific as analyte, Example 4B
T7 construct: also called hu CD3εγ-Fc
In short: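 Human CD3ε/γ-Fc fusion is amine-coupled to the chip at pH 4.5. Anti-DLL3/CD3 bispecifics are injected as analyte in PBS-T-EDTA at 30 μl/min, with 600 s association and 1800 s dissociation. Binding kinetics are measured by SPR.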

[1] = biological target: T8, FLAG-tagged human DLL4 full length (human, UniProt Q9NR61 1-685); assay: flow cytometry on HEK293 cells expressing human DLL4 (HEK293-huDLL4), PE anti-human secondary, control: secondary antibody only
T8 construct: also called human DLL4 on HEK293 cells
Description: Bound molecules were detected with PE-conjugated anti-human secondary antibody (Sigma-Aldrich, #P8047). As negative control, cells were incubated with secondary antibody only. The samples were measured by flow-cytometry.

EGF1+2 = biological target: T1, EGF1+2; assay: flow cytometry on HEK293 cells expressing the DLL3 subdomain construct, PE anti-human secondary, control: secondary antibody only
In short: (§1)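 Binders tested on HEK293 cells displaying the DLL3 subdomain construct; bound molecules detected by flow cytometry using PE-conjugated anti-human secondary antibody. Negative control: cells with secondary antibody only.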

EGF2+3 = biological target: T2, EGF2+3; assay: as above
In short: as §1

EGF3+4 = biological target: T3, EGF3+4; assay: as above
In short: as §1

EGF4+5 = biological target: T4, EGF4+5; assay: as above
In short: as §1

EGF5+6 = biological target: T5, EGF5+6; assay: as above
In short: as §1

[2] = biological target: T6, EGF6+MEMBRANE PROXIMAL PEPTIDE; assay: as above
In short: as §1

T7 sequence (chain, as listed by the source limits assumed): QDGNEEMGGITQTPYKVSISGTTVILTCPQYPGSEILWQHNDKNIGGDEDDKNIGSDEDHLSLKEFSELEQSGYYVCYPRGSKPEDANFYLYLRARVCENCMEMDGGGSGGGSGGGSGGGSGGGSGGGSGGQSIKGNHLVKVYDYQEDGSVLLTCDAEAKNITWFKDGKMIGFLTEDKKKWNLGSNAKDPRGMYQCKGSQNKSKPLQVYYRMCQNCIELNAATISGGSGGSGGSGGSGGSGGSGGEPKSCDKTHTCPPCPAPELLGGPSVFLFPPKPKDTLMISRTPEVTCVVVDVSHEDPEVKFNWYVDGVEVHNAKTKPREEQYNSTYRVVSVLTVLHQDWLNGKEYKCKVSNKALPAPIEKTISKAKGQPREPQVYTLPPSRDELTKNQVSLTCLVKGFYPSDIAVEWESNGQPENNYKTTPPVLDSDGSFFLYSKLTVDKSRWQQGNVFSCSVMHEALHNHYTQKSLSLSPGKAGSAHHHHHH
T8 sequence (Q9NR61 other isoform, or with tags, fused parts or gaps limits assumed): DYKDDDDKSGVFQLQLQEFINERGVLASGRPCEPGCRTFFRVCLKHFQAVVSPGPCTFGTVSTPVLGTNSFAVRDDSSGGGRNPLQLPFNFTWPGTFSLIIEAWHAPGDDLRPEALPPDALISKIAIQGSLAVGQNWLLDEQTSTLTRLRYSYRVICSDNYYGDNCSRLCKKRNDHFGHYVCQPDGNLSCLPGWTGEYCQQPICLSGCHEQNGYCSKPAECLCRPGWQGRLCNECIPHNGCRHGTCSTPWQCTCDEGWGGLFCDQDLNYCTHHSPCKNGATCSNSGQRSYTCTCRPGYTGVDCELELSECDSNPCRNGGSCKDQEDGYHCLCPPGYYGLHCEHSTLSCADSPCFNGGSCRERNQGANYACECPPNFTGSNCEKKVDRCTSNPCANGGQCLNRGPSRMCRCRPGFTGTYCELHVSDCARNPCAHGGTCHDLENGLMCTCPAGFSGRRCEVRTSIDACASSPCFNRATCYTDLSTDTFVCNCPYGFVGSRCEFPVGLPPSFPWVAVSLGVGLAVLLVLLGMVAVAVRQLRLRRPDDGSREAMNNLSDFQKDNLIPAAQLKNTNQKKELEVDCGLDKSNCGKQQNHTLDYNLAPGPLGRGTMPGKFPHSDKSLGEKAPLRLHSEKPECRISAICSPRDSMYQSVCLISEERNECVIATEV

Binder	Kd (Human CD3 E+G HuFc-6xHis) [nM]	binding result [1]	binding result (EGF1+2)	binding result (EGF2+3)	binding result (EGF3+4)	binding result (EGF4+5)	binding result (EGF5+6)	binding result [2]
DLL3#3/CD3#1 (bispecific antibody, human IgG1, kappa, lambda, L234A L235A, Heterodimer of one DLL3 chain and one CD3 chain (scFab-Fc, knob-in-hole)) chain 1: DIQMTQSPSAMSASVGDRVTITCRASQGISNYLVWFQQKPGKAPKRLIYAVSSLYSGVPSRFSGSGSGTEFTLTISSLQPEDFATYYCLQHDSYPYTFGQGTKLEIKRTVAAPSVFIFPPSDEQLKSGTASVVCLLNNFYPREAKVQWKVDNALQSGNSQESVTEQDSKDSTYSLSSTLTLSKADYEKHKVYACEVTHQGLSSPVTKSFNRGECGGGGSEGKSSGSGSESKSTEGKSSGSGSESKSTGGGGSQVQLVQSGAEVKKPGASVKVSCKASGYTFTSYYVHWVRQAPGQGLEWMVIINPGGGTTSYAQKFLGRVTMTRDTSTNTVYMELKSLRSEDTAVYYCARGEAVTGNYFYYGMDVWGQGTTVTVSSASTKGPSVFPLAPSSKSTSGGTAALGCLVKDYFPEPVTVSWNSGALTSGVHTFPAVLQSSGLYSLSSVVTVPSSSLGTQTYICNVNHKPSNTKVDKRVEPKSCDKTHTCPPCPAPEAAGGPSVFLFPPKPKDTLMISRTPEVTCVVVDVSHEDPEVKFNWYVDGVEVHNAKTKPREEQYNSTYRVVSVLTVLHQDWLNGKEYKCKVSNKALPAPIEKTISKAKGQPREPQVYTLPPSREEMTKNQVSLWCLVKGFYPSDIAVEWESNGQPENNYKTTPPVLDSDGSFFLYSKLTVDKSRWQQGNVFSCSVMHEALHNHYTQKSLSLSPG chain 2: EAVVTQEPSLTVSPGGTVTLTCRSSTGAVTTSNYANWVQEKPGQLPRGLIGGTNKRAPWVPARFSGSLLGGKAALTLSGAQPEDEAEYFCALWYSNLWVFGGGTKLTVLGQPKAAPSVTLFPPSSEELQANKATLVCLISDFYPGAVKVAWKADGSPVNTGVETTTPSKQSNNKYAASSYLSLTPEQWKSHRSYSCQVTHEGSTVEKTVAPAECSGGGGSEGKSSGSGSESKSTEGKSSGSGSESKSTGGGGSEVQLVESGGGLVQPGGSLKLSCAASGFTFNTYAMNWVRQAPGKGLEWVARIRSKYNNYATYYADSVKDRFTISRDDSKNTAYLQMNNLKTEDTAVYYCVRHGNFGNSYVSWFAYWGQGTLVTVSAASTKGPSVFPLAPSSKSTSGGTAALGCLVKDYFPEPVTVSWNSGALTSGVHTFPAVLQSSGLYSLSSVVTVPSSSLGTQTYICNVNHKPSNTKVDKRVEPKSCDKTHTCPPCPAPEAAGGPSVFLFPPKPKDTLMISRTPEVTCVVVDVSHEDPEVKFNWYVDGVEVHNAKTKPREEQYNSTYRVVSVLTVLHQDWLNGKEYKCKVSNKALPAPIEKTISKAKGQPREPQVYTLPPSREEMTKNQVSLSCAVKGFYPSDIAVEWESNGQPENNYKTTPPVLDSDGSFFLVSKLTVDKSRWQQGNVFSCSVMHEALHNRFTQKSLSLSPG	2	no binding (tested: 1.6 nM)	no binding (tested: 1.6 nM)	no binding (tested: 1.6 nM)	no binding (tested: 1.6 nM)	no binding (tested: 1.6 nM)	no binding (tested: 1.6 nM)	
DLL3#4/CD3#1 (bispecific antibody, human IgG1, kappa, lambda, L234A L235A, Heterodimer of one DLL3 chain and one CD3 chain (scFab-Fc, knob-in-hole)) chain 1: not shown chain 2: EAVVTQEPSLTVSPGGTVTLTCRSSTGAVTTSNYANWVQEKPGQLPRGLIGGTNKRAPWVPARFSGSLLGGKAALTLSGAQPEDEAEYFCALWYSNLWVFGGGTKLTVLGQPKAAPSVTLFPPSSEELQANKATLVCLISDFYPGAVKVAWKADGSPVNTGVETTTPSKQSNNKYAASSYLSLTPEQWKSHRSYSCQVTHEGSTVEKTVAPAECSGGGGSEGKSSGSGSESKSTEGKSSGSGSESKSTGGGGSEVQLVESGGGLVQPGGSLKLSCAASGFTFNTYAMNWVRQAPGKGLEWVARIRSKYNNYATYYADSVKDRFTISRDDSKNTAYLQMNNLKTEDTAVYYCVRHGNFGNSYVSWFAYWGQGTLVTVSAASTKGPSVFPLAPSSKSTSGGTAALGCLVKDYFPEPVTVSWNSGALTSGVHTFPAVLQSSGLYSLSSVVTVPSSSLGTQTYICNVNHKPSNTKVDKRVEPKSCDKTHTCPPCPAPEAAGGPSVFLFPPKPKDTLMISRTPEVTCVVVDVSHEDPEVKFNWYVDGVEVHNAKTKPREEQYNSTYRVVSVLTVLHQDWLNGKEYKCKVSNKALPAPIEKTISKAKGQPREPQVYTLPPSREEMTKNQVSLSCAVKGFYPSDIAVEWESNGQPENNYKTTPPVLDSDGSFFLVSKLTVDKSRWQQGNVFSCSVMHEALHNRFTQKSLSLSPG	2	no binding (tested: 1.6 nM)	no binding (tested: 1.6 nM)	no binding (tested: 1.6 nM)			no binding (tested: 1.6 nM)	no binding (tested: 1.6 nM)
DLL3#3/CD3#2 (bispecific antibody, human IgG1, kappa, lambda, L234A L235A, Heterodimer of one DLL3 chain and one CD3 chain (scFab-Fc, knob-in-hole)) chain 1: DIQMTQSPSAMSASVGDRVTITCRASQGISNYLVWFQQKPGKAPKRLIYAVSSLYSGVPSRFSGSGSGTEFTLTISSLQPEDFATYYCLQHDSYPYTFGQGTKLEIKRTVAAPSVFIFPPSDEQLKSGTASVVCLLNNFYPREAKVQWKVDNALQSGNSQESVTEQDSKDSTYSLSSTLTLSKADYEKHKVYACEVTHQGLSSPVTKSFNRGECGGGGSEGKSSGSGSESKSTEGKSSGSGSESKSTGGGGSQVQLVQSGAEVKKPGASVKVSCKASGYTFTSYYVHWVRQAPGQGLEWMVIINPGGGTTSYAQKFLGRVTMTRDTSTNTVYMELKSLRSEDTAVYYCARGEAVTGNYFYYGMDVWGQGTTVTVSSASTKGPSVFPLAPSSKSTSGGTAALGCLVKDYFPEPVTVSWNSGALTSGVHTFPAVLQSSGLYSLSSVVTVPSSSLGTQTYICNVNHKPSNTKVDKRVEPKSCDKTHTCPPCPAPEAAGGPSVFLFPPKPKDTLMISRTPEVTCVVVDVSHEDPEVKFNWYVDGVEVHNAKTKPREEQYNSTYRVVSVLTVLHQDWLNGKEYKCKVSNKALPAPIEKTISKAKGQPREPQVYTLPPSREEMTKNQVSLWCLVKGFYPSDIAVEWESNGQPENNYKTTPPVLDSDGSFFLYSKLTVDKSRWQQGNVFSCSVMHEALHNHYTQKSLSLSPG chain 2: EAVVTQEPSLTVSPGGTVTLTCRSSTGAVTTSNYANWVQEKPGQLPRGLIGGTNKRAPWVPARFSGSLLGGKAALTLSGAQPEDEAEYFCALWYSNLWVFGGGTKLTVLGQPKAAPSVTLFPPSSEELQANKATLVCLISDFYPGAVKVAWKADGSPVNTGVETTTPSKQSNNKYAASSYLSLTPEQWKSHRSYSCQVTHEGSTVEKTVAPAECSGGGGSEGKSSGSGSESKSTEGKSSGSGSESKSTGGGGSEVQLVESGGGLVQPGGSLKLSCAASGFTFNTYAMNWVRQAPGKGLEWVARIRSKYINYATYYADSVKDRFTISRDDSKNTAYLQMNNLKTEDTAVYYCVRHGNFGNSYVSWFAYWGQGTLVTVSAASTKGPSVFPLAPSSKSTSGGTAALGCLVKDYFPEPVTVSWNSGALTSGVHTFPAVLQSSGLYSLSSVVTVPSSSLGTQTYICNVNHKPSNTKVDKRVEPKSCDKTHTCPPCPAPEAAGGPSVFLFPPKPKDTLMISRTPEVTCVVVDVSHEDPEVKFNWYVDGVEVHNAKTKPREEQYNSTYRVVSVLTVLHQDWLNGKEYKCKVSNKALPAPIEKTISKAKGQPREPQVYTLPPSREEMTKNQVSLSCAVKGFYPSDIAVEWESNGQPENNYKTTPPVLDSDGSFFLVSKLTVDKSRWQQGNVFSCSVMHEALHNRFTQKSLSLSPG	7	no binding (tested: 1.6 nM)	no binding (tested: 1.6 nM)	no binding (tested: 1.6 nM)	no binding (tested: 1.6 nM)	no binding (tested: 1.6 nM)	no binding (tested: 1.6 nM)	
